From article PMC10515186 come the findings set out here.

The target of assay [1] is SARS-CoV-2 spike protein (Hexapro S) (SARS-CoV-2). In words: dynamic light scattering.
The target is the same in assay [2].
The target is the same in assay [3]. In words: other fluorescence titration.

For the substance “Burkholderia oklahomensis agglutinin (BOA) (natural protein)”, the lowest lectin concentration with a significant increase in hydrodynamic radius in assay [1] amounted to 60 nM. Also, the EC50, plaque reduction assay, SARS-CoV-2 Munich isolate in Vero E6 cells in assay [2] amounted to 9 nM.

Consider “Oscillatoria agardhii agglutinin (OAA) (natural protein)”, for which the lowest lectin concentration with a significant increase in hydrodynamic radius in assay [1] turned out to be 125 nM.

The substance “SeTau-405 fluorescently labeled BOA (natural protein)” came in with a half-saturation point in assay [3] of 30 to 60 nM.
